This passage reports A450 results from patent US20200123266A1 (Memorial Sloan Kettering, published 2020).

Assay [1] addresses T1, ET140-p25 (human, cysteine pairing not given here).
T1 construct: also called peptide 25
T1 peptide: Biotin-SGSGLRCSSNTPPLTCQRY
As to the kind of experiment: peptide ELISA, biotin peptide on streptavidin plate, antibody 1 ug/mL. Here is the method:
(§1) The peptides were coated onto Streptavidin plates at 2 ug/mL in PBST (PBS+0.05% Tween-20). After washing and blocking with 3% BSA. After washing, 1 ug/mL ET140-3, ET140-24, ET140-54 or ET901 mIgG1 was added to the wells, respectively. “mIgG1” used in all Examples represents that the variable region is fully human and the Fc part is mouse IgG1. Then HRP anti-mouse IgG detection antibody was added to each well. Finally, the color was developed using TMB substrate. A450 was recorded for data analysis.
(In general: An ELISA detects its analyte on a solid surface through an enzyme-linked reagent.)

Assay [2] addresses T2, ET140-p26 (human, cysteine pairing not given here).
T2 construct: also called peptide 26
T2 peptide: Biotin-SGSGRCSSNTPPLTCQRYC
The description is as above. Here is the method: as §1

Ends that are not written are not given here. * marks the point of attachment. Biotin = O=C1N[C@H]2[C@H](CS[C@H]2CCCCC(=O)*)N1

B1: ET140-153 mIgG1 (antibody, V domains shown)
VH: QVQLVQSGAEVKKPGSSVKVSCKASGGTFSSYAISWVRQAPGQGLEWMGRIIPILGIANYAQKFQGRVTITADKSTSTAYMELSSLRSEDTAVYYCARGGYYSHDMWSEDWGQGTLVTVSS
VL: LPVLTQPPSASGTPGQRVTISCSGRSSNIGSNSVNWYRQLPGAAPKLLIYSNNQRPPGVPVRFSGSKSGTSASLAISGLQSEDEATYYCATWDDNLNVHYVFGTGTKVTVLG
notes: also called ET140-3 mIgG1; ET140-3
For the molecule B1, the A450 stood at 0.583 in assay [1] and 0.225 in assay [2].
